Data on three molecules can be found in US20190336574A1 (TRUSTEES OF PRINCETON UNIVERSITY, published 2019).

The target of test [1] is T1, His-SND1 (16-339), SN1/2 domains, wild type (human, UniProt Q7KZF4 16-339).
T1 construct: also called His6-SND1 harboring the SN1/2 domains; not shown: N-terminal His tag (His6, His8 or His) with TEV site, pQlink vector
T1 sequence: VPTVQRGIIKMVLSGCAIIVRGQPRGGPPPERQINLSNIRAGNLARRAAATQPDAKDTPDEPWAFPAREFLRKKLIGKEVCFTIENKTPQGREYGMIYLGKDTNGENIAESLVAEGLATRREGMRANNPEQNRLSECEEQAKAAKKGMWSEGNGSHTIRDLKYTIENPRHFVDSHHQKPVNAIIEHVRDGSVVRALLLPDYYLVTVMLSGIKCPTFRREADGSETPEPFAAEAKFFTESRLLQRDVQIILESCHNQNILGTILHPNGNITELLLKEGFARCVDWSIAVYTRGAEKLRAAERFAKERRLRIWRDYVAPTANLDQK
Nature of the test: GST pull-down of His-SND1 (16-339), SDS-PAGE, Coomassie. Here is the method: (§1) GST-Mediated Pull-Down Assay: ˜20 μg of GST-MTDH (different truncation forms and site mutants) was bound to 10 μl of glutathione resin via GST tag. The resin was washed with 200 μl assay buffer (25 mM Tris, PH8.0, 150 mM NaCl, 3 mM DTT) three times to remove the excess unbound protein. […] The mixture was washed with 200 μl assay buffer twice before examined by SDS-PAGE, and visualized by Coomassie blue staining. The experiments were repeated 3 times and the ratio of SND1 associated with GST-MTDH was analyzed by ImageJ.

For test [2], the target named is T1, His-SND1 (16-339), SN1/2 domains, wild …. Briefly: GST pull-down on glutathione resin, SDS-PAGE, Coomassie blue; normalised percentage of binding, mean±SEM of three experiments.
Source text: The proteins bound to GS4B were examined on SDS-PAGE and visualized by Coomassie blue staining. […] The bound proteins were examined as in (FIG. 22A). For both (FIG. 22A) and (FIG. 22B), experiments were repeated three times; representative results are shown. The normalized percentage of binding was averaged from three experiments; mean±SEM was shown below the data. (FIG. 22C) HEK293T cells were transfected with human HA-SND1, WT Myc-MTDH or Myc-MTDH with indicated single point mutation. Lysates were immunoprecipitated with anti-Myc antibody and immunoblotted with the indicated antibodies. (FIG. 22D) HEK293T cells were transfected with human Myc-MTDH, WT HA-SND1 or mutant HA-SND1 with indicated single point mutations or deletions. Lysates were immunoprecipitated with anti-Myc and immunoblotted with the indicated antibodies.
as §1
Identification of MTDH and SND1 mutants deficient in binding: To gain insight into how the interface characterized above contributes to MTDH-SND1 interaction, structure-guided mutagenesis studies were performed.

Test [3] deals with T2, HA-SND1, full-length human, wild type (human, UniProt Q7KZF4 1-910).
T2 construct: Full-length, HA-tagged; Expressed in HEK293T cells, tested in lysate; also called HA-tagged SND1; WT HA-SND1
T2 sequence: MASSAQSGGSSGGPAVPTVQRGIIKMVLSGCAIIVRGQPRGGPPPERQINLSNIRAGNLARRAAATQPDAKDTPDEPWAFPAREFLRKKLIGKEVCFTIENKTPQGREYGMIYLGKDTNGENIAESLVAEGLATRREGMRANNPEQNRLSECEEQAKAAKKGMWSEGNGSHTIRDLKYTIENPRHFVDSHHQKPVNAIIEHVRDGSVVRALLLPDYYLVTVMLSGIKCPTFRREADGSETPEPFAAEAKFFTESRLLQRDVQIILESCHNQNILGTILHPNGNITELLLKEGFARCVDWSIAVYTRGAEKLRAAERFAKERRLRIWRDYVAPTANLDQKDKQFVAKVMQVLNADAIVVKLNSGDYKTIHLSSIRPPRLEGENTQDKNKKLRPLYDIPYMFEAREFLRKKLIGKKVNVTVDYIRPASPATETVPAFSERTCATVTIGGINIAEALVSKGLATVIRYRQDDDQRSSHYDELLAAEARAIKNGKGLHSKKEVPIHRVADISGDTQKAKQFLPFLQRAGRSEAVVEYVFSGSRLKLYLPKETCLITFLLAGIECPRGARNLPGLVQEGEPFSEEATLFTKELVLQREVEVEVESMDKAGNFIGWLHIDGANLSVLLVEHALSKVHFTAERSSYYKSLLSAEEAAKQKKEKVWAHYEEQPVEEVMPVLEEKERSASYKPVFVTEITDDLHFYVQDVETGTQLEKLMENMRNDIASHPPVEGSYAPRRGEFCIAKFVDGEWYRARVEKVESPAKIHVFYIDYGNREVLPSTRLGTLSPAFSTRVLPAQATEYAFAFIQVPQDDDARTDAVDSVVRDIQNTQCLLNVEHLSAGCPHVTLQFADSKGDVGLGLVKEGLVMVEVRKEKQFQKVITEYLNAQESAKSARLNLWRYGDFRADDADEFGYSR
Nature of the test: competition in co-IP, 50 uM peptide; competitor MTDH. Here is the method:
293 T cells were co-transfected with HA-SND1 and MYC-MTDH. After 48 hours, the cells were collected and subject to immunoprecipitation assay. Cell lysate was incubated with anti-HA antibody or IgG overnight followed by a two hour incubation with Protein A/G beads to pull down HA-SND1 protein. The beads were washed with lysis buffer and split into five fractions.
The elution fractions and beads were collected for western blot. (FIGS. 26C and 26D) Cell lyaste was split into 6 fractions. One of the fractions was incubated with IgG and the rest were incubated with anti-HA antibody plus either buffer or indicated peptides. After 24 hours, the lysate was incubated with Protein A/G beads then the beads was washed followed by wash buffer. 50 uM of peptides was used in all the assays.

Another test deals with T3, murine SND1, wild type (mouse, UniProt Q78PY7 1-910).
T3 construct: Endogenous protein of murine PyMT mammary tumor cells; also called SND1 (in PyMT tumor cells); WT shRNA-resistant murine SND1
T3 sequence (looked up): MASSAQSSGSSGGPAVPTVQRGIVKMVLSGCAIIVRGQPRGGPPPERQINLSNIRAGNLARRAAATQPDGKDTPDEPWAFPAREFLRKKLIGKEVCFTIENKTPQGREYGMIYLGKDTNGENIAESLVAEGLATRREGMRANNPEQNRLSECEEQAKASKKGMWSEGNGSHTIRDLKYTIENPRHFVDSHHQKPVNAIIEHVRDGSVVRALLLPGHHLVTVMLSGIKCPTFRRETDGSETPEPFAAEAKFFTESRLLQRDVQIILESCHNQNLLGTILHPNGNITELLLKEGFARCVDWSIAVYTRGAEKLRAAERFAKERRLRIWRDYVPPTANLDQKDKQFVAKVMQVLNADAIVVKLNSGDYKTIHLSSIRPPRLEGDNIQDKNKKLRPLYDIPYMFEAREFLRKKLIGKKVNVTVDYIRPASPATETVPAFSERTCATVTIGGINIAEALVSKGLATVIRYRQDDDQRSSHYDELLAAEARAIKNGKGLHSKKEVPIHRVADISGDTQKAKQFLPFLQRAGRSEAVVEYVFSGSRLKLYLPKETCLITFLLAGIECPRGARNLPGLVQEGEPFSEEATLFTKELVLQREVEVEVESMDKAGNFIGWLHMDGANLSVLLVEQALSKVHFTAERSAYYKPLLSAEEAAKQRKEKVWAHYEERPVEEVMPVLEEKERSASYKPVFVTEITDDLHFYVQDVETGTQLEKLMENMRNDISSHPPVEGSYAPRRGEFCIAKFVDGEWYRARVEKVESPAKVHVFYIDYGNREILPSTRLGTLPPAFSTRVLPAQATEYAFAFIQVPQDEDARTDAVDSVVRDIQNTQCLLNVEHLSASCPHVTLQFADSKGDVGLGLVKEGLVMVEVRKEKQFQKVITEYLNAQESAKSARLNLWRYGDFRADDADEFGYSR
Briefly: anti-MTDH co-IP from PyMT;Mtdh-/- MECs reconstituted with murine MTDH, western blot. Here is the method:
(FIG. 8A, FIG. 8E) Lysates from PyMT;Mtdh−/− MECs reconstituted with vector control, WT or mutant murine MTDH were immunoprecipitated with anti-MTDH antibody and immunoblotted for indicated proteins. (FIG. 8B, FIG. 8F) Mammosphere assays were performed with PyMT;Mtdh−/− pMECs reconstituted with indicated Mtdh constructs. (FIG. 8C, FIG. 8D, FIG. 8G, FIG. 8H) In vivo tumor formation (FIG. 8C, FIG. 8G for tumor incidence; FIG. 8D, FIG. 8H for tumor volumes) were performed at limiting numbers using PyMT;Mtdh−/− pMECs reconstituted with indicated WT or mutant MTDH. *Note: mouse W391D MTDH corresponds to human W394D MTDH; and mouse W398D MTDH corresponds to human W401D MTDH. Statistics: (FIG. 8B, […]) Student's t-test. (FIG. 8C, FIG. 8G) Limiting dilution analysis. (FIG. 8D, FIG. 8H) Mann-Whitney test. Data represent mean±SEM. ***p<0.001, **p<0.01, *p<0.05.
Immunoprecipitation and western blot For immunoprecipitation (IP) experiments, cultured cells were washed in cold PBS and lysed in lysis buffer (20 mM Tris pH 7.4, 0.15 M NaCl, 1 mM EDTA, 1 mM EGTA, 1% Tx-100, 0.0025 M Na2P2O7, 1 mM α-glycerolphosphate, 1 mM Na3VO4, and 1 mM NaF) with an EDTA-free protease inhibitor mixture (Roche Applied Science) and PMSF. Cell lysates were then incubated on ice for 10 min, centrifuged, and precleared by incubating with protein A/G beads (Santa Cruz Biotechnology) for 1 h at 4° C. […]
(Immunoblotting shows a protein as a band on a membrane.)

B1: GST-MTDH (364-582) W394A (other)
chain: YQWDVSRNQPYIDDEWSGLNGLSSADPNSDANAPAEEWGNWVDEERASLLKSQEPIPDDQKVSDDDKEKGEGALPTGKSKKKKKKKKKQGEDNSTAQDTEELEKEIREDLPVNTSKTRPKQEKAFSLKTISTSDPAEVLVKNSQPIKTLPPATSTEPSVILSKSDSDKSSSQVPPILQETDKSKSNTKQNSVPPSQTKSETSWESPKQIKKKKKARRET
notes: not shown: N-terminal GST tag with TEV site, pQlink vector
B1: in test [1], the binding result is listed as “no binding”. Besides, the “% Maximum binding” value in test [2] is 1%.

B2: Peptide-401A (PNSDWNAPAEEAGNW) (peptide)
peptide: PNSDWNAPAEEAGNW
notes: also called peptide comprising the single point mutation W401A
On to B2, for which, in test [3], the “effectiveness in blocking the MTDH-SND1 interaction relative to the wild type peptide” value is ~0.5 fold of wild type peptide.

B3: W398D* (other, mouse, UniProt Q80WJ7 1-579, looked up)
single chain: MAARSWQDELAQQAEEGSARLRELLSVGLGFLRTELGLDLGLEPKRYPGWVILVGTGALGLLLLFLLGYGWAAACAGARKKRRSPPRKREEAAPPTPAPDDLAQLKNLRSEEQKKKNRKKLPEKPKPNGRTVEVPEDEVVRNPRSITAKQAPETDKKNEKSKKNKKKSKSDAKAVQNSSRHDGKEVDEGAWETKISHREKRQQRKRDKVLTDSGSLDSTIPGIENIITVTTEQLTTASFPVGSKKNKGDSHLNVQVSNFKSGKGDSTLQVSSRLNENLTVNGGGWSEKSVKLSSQLSEEKWNSVPPASAGKRKTEPSAWTQDTGDTNANGKDWGRNWSDRSIFSGIGSTAEPVSQSTTSDYQWDVSRNQPYIDDEWSGLNGLSSADPSSDWNAPAEEDGNWVDEDRASLLKSQEPISNDQKVSDDDKEKGEGALPTGKSKKKKKKKKKQGEDNSHTQDTEDLEKDTREELPVNTSKARPKQEKACSLKTMSTSDPAEVLIKNSQPVKTLPPAISAEPSITLSKGDSDNSSSQVPPMLQDTDKPKSNAKQNSVPPSQTKSETNWESPKQIKKKKKARRET
notes: point mutant W398D, murine numbering; named in the legend's footnote and on the sheet; also called mouse W398D MTDH (corresponds to human W401D MTDH)
As for B3, the binding result with murine SND1, wild type is “no binding”.
